In paper PMC6005685 (Journal of molecular recognition : JMR, 2017):

Assays:
cross-linking = target: the molecule itself; experiment: cross-linking
SEC = target: the molecule itself; experiment: SEC

Protein | stoichiometry N (cross-linking) | stoichiometry N (SEC)
6His-Grb7RA domain (domain or fragment, UniProt Q14451 102-187, looked up) HVVKVYSEDGACRSVEVAAGATARHVCEMLVQRAHALSDETWGLVECHPHLALERGLEDHESVVEVQAAWPVGGDSRFVFRKNFAK | 2 | 3
GST cleaved Grb7RA domain (domain or fragment) GSHVVKVYSEDGACRSVEVAAGATARHVCEMLVQRAHALSDETWGLVECHPHLALERGLEDHESVVEVQAAWPVGGDSRFVFRKNFAK | 3 | 2
